Assay results published in publication PMC10470768.

How the values were obtained:
[1] = test system: Tde1tox H279A/D282A (catalytically inactive Ntox15 domain) (Phocaeicola vulgatus); experiment: BLI; settings: BLI (Octet Red96), biotinylated oligo on streptavidin sensors, Octet kinetics buffer (Sartorius), association 300 s, dissociation 600 s, one-site equilibrium …
[2] = target: Tdi orphan B (TdioB), orphan immunity protein; experiment: BLI; Octet Red96; hexahistidine immunity proteins (5 mg/mL) immobilised on NTA biosensors; varying concentrations of Tde1^tox H279A/D282A in Octet kinetics buffer; association 300 s, dissociation 600 s; one site fit of equilibrium binding data
[3] = target: Tdi orphan A (TdioA), orphan immunity protein; experiment: as above
[4] = target: Tdi1 (cognate immunity protein of Tde1) (Phocaeicola vulgatus); experiment: as above

| Substance | Kd [1] | Kd [2] | Kd [3] | Kd [4] |
| --- | --- | --- | --- | --- |
| 30-nt random-sequence biotinylated ssDNA | 500 nM | – | – | – |
| 30-bp random-sequence biotinylated dsDNA | 500 nM | – | – | – |
| Tde1^tox H279A/D282A (catalytically inactive Ntox15 domain of the Hcp-Ntox15 effector Tde1) (domain or fragment) | – | 19 nM | 24 nM | 18 nM |
